Results from US20040105862A1.

Experiments:
mouse TIMP-1 (mouse) [1] = target: mouse TIMP-1 (mouse) (UniProt P12032); experiment: BIAcore SPR
mouse TIMP-1 (mouse) [2] = target: mouse TIMP-1 (mouse) (UniProt P12032); experiment: BIAcore SPR, immobilised mouse TIMP-1

Chain of mouse TIMP-1 (mouse) (P12032 25-205 limits assumed): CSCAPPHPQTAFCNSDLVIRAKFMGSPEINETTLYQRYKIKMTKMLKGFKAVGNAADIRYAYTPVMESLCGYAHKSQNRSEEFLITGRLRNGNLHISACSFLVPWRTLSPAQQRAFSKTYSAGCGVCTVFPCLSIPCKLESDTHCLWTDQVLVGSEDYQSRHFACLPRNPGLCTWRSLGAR

- fold weaker than the affinity to rat TIMP-1 (mouse TIMP-1 (mouse) [1]): 225 fold
- Kd (mouse TIMP-1 (mouse) [2]): 180 nM
B1: MS-BW-17-1 Fab (Fab, V domains shown)
VH: QVQLVQSGAEVKKPGESLKISCKGSGYSFTSYWIGWVRQMPGKGLEWMGIIYPGDSDTRYSPSFQGQVTISADKSISTAYLQWSSLKASDTAMYYCARLTNYFDSIYYDHWGQGTLVTVSS
VL: DIALTQPASVSGSPGQSITISCTGTSSDVGGYNYVSWYQQHPGKAPKLMIYDVSNRPSGVSNRFSGSKSGNTASLTISGLQAEDEADYYCQAFDVAPNGKVFGGGTKLTVLG
